Laboratory results as given in the RNAGym collection of RNA variant scans (doi:10.7554/elife.80360).

B1: Hairpin Ribozyme (parent)
chain: GUCCUCUUUCACGUGCGCGUGAAAGAGAGAAGUGAACCAGAGAAACACACGUUGUGGUAUAUUACCUGGUA

Variants of: B1
Assay: self-cleavage, relative activity (ratio to wild type); higher = more cleavage; co-transcriptional

| Variant | self-cleavage |
| --- | --- |
| GUCCUCUUUCACGUGCGCGUGAAAGAGAGAAGUGUACCAGAGAAACACACGUUGUGGUAAAUUACCUGGUA [A35U U60A] | 0.426 |
| GUCCUCUUUCACGUGCGCGUGAAAGAGAGAAGUGAGCCAGAGUAACACACGUUGUGGUAUAUUACCUGGUA [A36G A43U] | 0.0504 |
| GUCCUCUUUCACGUGCGCGUGAAAGAGAGAAGUGAGCCAGAGCAACACACGUUGUGGUAUAUUACCUGGUA [A36G A43C] | 0.228 |
| GUCCUCUUUCACGUGCGCGUGAAAGAGAGAAGUGACCCAGAGAAACACACGUUGUGGUAUAUUACCUGGCA [A36C U70C] | 0.607 |
| GUCCUCUUUCACGUGCGCGUGAAAGAGAGAAGUGUACCAGAGAAACACACGUUGUGGUAUAUUACCUGGCA [A35U U70C] | 0.702 |
| GUCCUCUUUCACGUGCGCGUGAAAGAGAGAAGUGUACCAGAGAAACACACGUUGUGGUAUAUUACCUGGAA [A35U U70A] | 0.703 |
| GUCCUCUUUCACGUGCGCGUGAAAGAGAGAAGUGAUCCUGAGAAACACACGUUGUGGUAUAUUACCUGGUA [A36U A39U] | 0.171 |
| GUCCUCUUUCACGUGCGCGUGAAAGAGAGAAGUGAGCCAGAGAAACACACUUUGUGGUAUAUUACCUGGUA [A36G G51U] | 0.97 |
| GUCCUCUUUCACGUGCGCGUGAAAGAGAGAAGUGACCCAGAGAAACACACGUUGUGGUAUAUUACGUGGUA [A36C C66G] | 0.131 |
| GUCCUCUUUCACGUGCGCGUGAAAGAGAGAAGUGACCCAGAGAAACACACGUUGUGGUAUAUUACCUGCUA [A36C G69C] | 0.304 |
| GUCCUCUUUCACGUGCGCGUGAAAGAGAGAAGUGACCCAGAGAAACACACGUUGUGGUAUAUUAGCUGGUA [A36C C65G] | 0.3 |
| GUCCUCUUUCACGUGCGCGUGAAAGAGAGAAGUGACCCAGACAAACACACGUUGUGGUAUAUUACCUGGUA [A36C G42C] | 0.245 |
| GUCCUCUUUCACGUGCGCGUGAAAGAGAGAAGUGAGCCAGAGAAACACACGUUGCGGUAUAUUACCUGGUA [A36G U55C] | 0.324 |
| GUCCUCUUUCACGUGCGCGUGAAAGAGAGAAGUGAGCCAGAGAAACACACGUUGGGGUAUAUUACCUGGUA [A36G U55G] | 0.271 |
| GUCCUCUUUCACGUGCGCGUGAAAGAGAGAAGUGACCCAGAGAAACACACGUUGUGGAAUAUUACCUGGUA [A36C U58A] | 0.391 |
| GUCCUCUUUCACGUGCGCGUGAAAGAGAGAAGUGACCCAGAGAAACACACGUUGUGGCAUAUUACCUGGUA [A36C U58C] | 0.685 |
| GUCCUCUUUCACGUGCGCGUGAAAGAGAGAAGUGACCCAGAGAAACACACGUUGUGGUAUAUAACCUGGUA [A36C U63A] | 0.0749 |
| GUCCUCUUUCACGUGCGCGUGAAAGAGAGAAGUGUACCAGAGAAACACACGUUGUGGUAUAUCACCUGGUA [A35U U63C] | 0.152 |
| GUCCUCUUUCACGUGCGCGUGAAAGAGAGAAGUGACCCAGAGAAACACAUGUUGUGGUAUAUUACCUGGUA [A36C C50U] | 0.222 |

| Variant | self-cleavage |
| --- | --- |
| GUCCUCUUUCACGUGCGCGUGAAAGAGAGAAGUGAGCCAGAGAAACACACGUUGUUGUAUAUUACCUGGUA [A36G G56U] | 0.183 |
| GUCCUCUUUCACGUGCGCGUGAAAGAGAGAAGUGAGCCAGUGAAACACACGUUGUGGUAUAUUACCUGGUA [A36G A41U] | 1.31 |
| GUCCUCUUUCACGUGCGCGUGAAAGAGAGAAGUGACCCAGAGAAACACACGUUGGGGUAUAUUACCUGGUA [A36C U55G] | 0.174 |
| GUCCUCUUUCACGUGCGCGUGAAAGAGAGAAGUGACCCAGAGAAACACACGUUGAGGUAUAUUACCUGGUA [A36C U55A] | 0.243 |
| GUCCUCUUUCACGUGCGCGUGAAAGAGAGAAGUGACCCAGAGAAACACACGUGGUGGUAUAUUACCUGGUA [A36C U53G] | 0.371 |
| GUCCUCUUUCACGUGCGCGUGAAAGAGAGAAGUGACCCAGAGAAACACACGUAGUGGUAUAUUACCUGGUA [A36C U53A] | 0.635 |
| GUCCUCUUUCACGUGCGCGUGAAAGAGAGAAGUGAGCCAGAGAAUCACACGUUGUGGUAUAUUACCUGGUA [A36G A45U] | 0.219 |
| GUCCUCUUUCACGUGCGCGUGAAAGAGAGAAGUGAGCCAGAGAAGCACACGUUGUGGUAUAUUACCUGGUA [A36G A45G] | 0.28 |
| GUCCUCUUUCACGUGCGCGUGAAAGAGAGAAGUGAGCCAGAGAAACACACGUUGUGGUAUAUUACCUGGUG [A36G A71G] | 0.982 |
| GUCCUCUUUCACGUGCGCGUGAAAGAGAGAAGUGACCCAGAGAAACACACGUUGUGUUAUAUUACCUGGUA [A36C G57U] | 0.264 |
| GUCCUCUUUCACGUGCGCGUGAAAGAGAGAAGUGAGCGAGAGAAACACACGUUGUGGUAUAUUACCUGGUA [A36G C38G] | 0.127 |
| GUCCUCUUUCACGUGCGCGUGAAAGAGAGAAGUGAGCCAGAGAAACACACGUUGUGGUAUAUUACCUGGGA [A36G U70G] | 1.03 |
| GUCCUCUUUCACGUGCGCGUGAAAGAGAGAAGUGAGCCAGAGAAACACACGUUGUGGGAUAUUACCUGGUA [A36G U58G] | 0.952 |
| GUCCUCUUUCACGUGCGCGUGAAAGAGAGAAGUGACCCAGAGAAACACUCGUUGUGGUAUAUUACCUGGUA [A36C A49U] | 0.203 |
| GUCCUCUUUCACGUGCGCGUGAAAGAGAGAAGUGACCCAGAGAAACACACGUUGUGGUAUAUUGCCUGGUA [A36C A64G] | 0.281 |
| GUCCUCUUUCACGUGCGCGUGAAAGAGAGAAGUGACCCAGAGUAACACACGUUGUGGUAUAUUACCUGGUA [A36C A43U] | 0.126 |
| GUCCUCUUUCACGUGCGCGUGAAAGAGAGAAGUGACCCAGAGCAACACACGUUGUGGUAUAUUACCUGGUA [A36C A43C] | 0.07 |
| GUCCUCUUUCACGUGCGCGUGAAAGAGAGAAGUGUACCAGAGAAACACACGUUGUGGUAUAAUACCUGGUA [A35U U62A] | 0.158 |
| GUCCUCUUUCACGUGCGCGUGAAAGAGAGAAGUGAUCCAGAGAAACACUCGUUGUGGUAUAUUACCUGGUA [A36U A49U] | 0.124 |
